± gives the uncertainty stated by the source.
B1: library; numbered along this chain (parent)
chain: MEVVDPQQLGMFTEGELMSVGMDTFIHRIDSTEVIYQPRRKRAKLIGKYLMGDLLGEGSYGKVKEVLDSETLCRRAVKILKKKKLRRIPNGEANVKKEIQLLRRLRHKNVIQLVDVLYNEEKQKMYMVMEYCVCGMQEMLDSVPEKRFPVCQAHGYFCQLIDGLEYLHSQGIVHKDIKPGNLLLTTGGTLKISDLGVAEALHPFAADDTCRTSQGSPAFQPPEIANGLDTFSGFKVDIWSAGVTLYNITTGLYPFEGDNIYKLFENIGKGSYAIPGDCGPPLSDLLKGMLEYEPAKRFSIRQIRQHSWFRKKHPPAEAPVPIPPSPDTKDRWRSMTVVPYLEDLHGADEDEDLFDIEDDIIYTQDFTVPGQVPEEEASHNGQRRGLPKAVCMNGTEAAQLSTKSRAEGRAPNPARKACSASSKIRRLSACKQQ

Variants of: B1
Test: STK11 functional score (HeLa growth suppression), rescaled enrichment; synonymous median = 1, nonsense median = 0 (normalised score)
Settings: with HeLa; variant type: missense
Procedure, shortened: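 The functional score takes the post/pre-selection log ratio, corrects it to wild type, rescales it to synonymous and nonsense medians, and merges it over codons and replicate transfections, with error from bootstrapping. Counts came from tiled gDNA amplicons sequenced on NextSeq (~2 million reads per tile). The libraries were POPCode codon-randomised, codon-optimised STK11 integrated by Bxb1 at an AAVS1 landing pad in HeLa, three regions with three transfections each.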

Variant | STK11 functional score
MEVVDPQQLGMFTEGELMSVGMDTFIHRIDSTEVIYQPRRKRAKLIGKYLMGDLLGEGSYGKVKEVLDSETLCRRAVKILKKKKLRRIPNGEANVKKEIQLLRRLRHKNVIQLVDVLYNEEKQKMYMVMEYCVCGMQEMLDSVPEKRFPVCQAHGYFCQLIDGLEYLHSQGIVHKDIKPGNLLLTTGGTLKISDLGVAEALHPFAADDTCRTSQGSPAFQPPEIANGLDTFSGFKVDIWSAGVTLYNITTGLYPFEGDNIYKLFENIGKGSYAIPGDCGPPLSDLLKGMLEYEPAKRFSIRQIRQHSWFRKKHPPAEAPVAIPPSPDTKDRWRSMTVVPYLEDLHGADEDEDLFDIEDDIIYTQDFTVPGQVPEEEASHNGQRRGLPKAVCMNGTEAAQLSTKSRAEGRAPNPARKACSASSKIRRLSACKQQ [P321A] | 0.987 ± 0.33
MEVVDPQQLGMFTEGELMSVGMDTFIHRIDSTEVIYQPRRKRAKLIGKYLMGDLLGEGSYGKVKEVLDSETLCRRAVKILKKKKLRRIPNGEANVKKEIQLLRRLRHKNVIQLVDVLYNEEKQKMYMVMEYCVCGMQEMLDSVPEKRFPVCQAHGYFCQLIDGLEYLHSQGIVHKDIKPGNLLLTTGGTLKISDLGVAEALHPFAADDTCRTSQGSPAFKPPEIANGLDTFSGFKVDIWSAGVTLYNITTGLYPFEGDNIYKLFENIGKGSYAIPGDCGPPLSDLLKGMLEYEPAKRFSIRQIRQHSWFRKKHPPAEAPVPIPPSPDTKDRWRSMTVVPYLEDLHGADEDEDLFDIEDDIIYTQDFTVPGQVPEEEASHNGQRRGLPKAVCMNGTEAAQLSTKSRAEGRAPNPARKACSASSKIRRLSACKQQ [Q220K] | 0.583 ± 0.28
MEVVDPQQLGMFTEGELMSVGMDTFIHRIDSTEVIYQQRRKRAKLIGKYLMGDLLGEGSYGKVKEVLDSETLCRRAVKILKKKKLRRIPNGEANVKKEIQLLRRLRHKNVIQLVDVLYNEEKQKMYMVMEYCVCGMQEMLDSVPEKRFPVCQAHGYFCQLIDGLEYLHSQGIVHKDIKPGNLLLTTGGTLKISDLGVAEALHPFAADDTCRTSQGSPAFQPPEIANGLDTFSGFKVDIWSAGVTLYNITTGLYPFEGDNIYKLFENIGKGSYAIPGDCGPPLSDLLKGMLEYEPAKRFSIRQIRQHSWFRKKHPPAEAPVPIPPSPDTKDRWRSMTVVPYLEDLHGADEDEDLFDIEDDIIYTQDFTVPGQVPEEEASHNGQRRGLPKAVCMNGTEAAQLSTKSRAEGRAPNPARKACSASSKIRRLSACKQQ [P38Q] | 1.58 ± 0.15
MEVVDPQQLGMFTEGELMSVGMDTFIHRIDSTEVIYQPRRKRAKLIGKYLMGDLLGEGSYGKVKEVLDSETLCRRAVKILKKKKLRRIPNGEANVKKEIQLLRRLRHKNVIQLVDVLYNEEKQKMYMVMEYCVCGMQEMLDSVPEKRFPVCQAHGYFCQLIDGLEYLHSQGIVHKDIKPGNLLLTTGGTLKISDLGVAEALHPFAADDTCRTSQGSPAFQPPEIANGLDTFSGFKVDIWSAGVTLYNITTGLYPFEGDNIYKLFENIGKGSYAIPGDCGPPLSDLLKGMLEYEPAKRFSIRQIRQHSWFRKKHPPAEAPVPIPPSPDTKDRWRSMTVVPYLEDLHGADEDEDLFDIEDDIIYTIDFTVPGQVPEEEASHNGQRRGLPKAVCMNGTEAAQLSTKSRAEGRAPNPARKACSASSKIRRLSACKQQ [Q364I] | 1.26 ± 0.47
MEVVDPQQLGMFTEGELMSVGMDTFIHRIDSTEVIYQPRRKRAKLIGKYLMGDLLGEGSYGKVKEVLDSETLCRRAVKILKKKKLRRIPNGEANVKKEIQLLRRLRHKNVIQLVDVLYNEEKQKMYMVMEYCVCGMQNMLDSVPEKRFPVCQAHGYFCQLIDGLEYLHSQGIVHKDIKPGNLLLTTGGTLKISDLGVAEALHPFAADDTCRTSQGSPAFQPPEIANGLDTFSGFKVDIWSAGVTLYNITTGLYPFEGDNIYKLFENIGKGSYAIPGDCGPPLSDLLKGMLEYEPAKRFSIRQIRQHSWFRKKHPPAEAPVPIPPSPDTKDRWRSMTVVPYLEDLHGADEDEDLFDIEDDIIYTQDFTVPGQVPEEEASHNGQRRGLPKAVCMNGTEAAQLSTKSRAEGRAPNPARKACSASSKIRRLSACKQQ [E138N] | 0.232 ± 0.14
MEVVDPQQLGMFTEGELMSVGMDTFIHRIDSTEVIYQPRRKRAKLIGKYLMGDLLGEGSYGKVKEVLDSETLCRRAVKILKKKKLRRIPNGEANVKKEIQLLRRLRHKNVIQLVDVLYNEEKQKMYMVMEYCVCGMQEMLDSVPEKRFPVCQAHGYFCQLIDGLEYLHSQGIVHKDIKPGNLLLTTGGTLKISDLGVAEALHPFAADDTCRTSQGSPAFQPPEIANGLDTFSGFKVDIWSAGVTLYNITTGLYPFEGDNIYKLFENIGKGSYAIPGDCGPPLSGLLKGMLEYEPAKRFSIRQIRQHSWFRKKHPPAEAPVPIPPSPDTKDRWRSMTVVPYLEDLHGADEDEDLFDIEDDIIYTQDFTVPGQVPEEEASHNGQRRGLPKAVCMNGTEAAQLSTKSRAEGRAPNPARKACSASSKIRRLSACKQQ [D284G] | 0.99 ± 0.21
MEVVDPQQLGMFTEGELMSVGMDTFIHRIDSTEVIYQPRRKRAKLIGKYLMGDLGGEGSYGKVKEVLDSETLCRRAVKILKKKKLRRIPNGEANVKKEIQLLRRLRHKNVIQLVDVLYNEEKQKMYMVMEYCVCGMQEMLDSVPEKRFPVCQAHGYFCQLIDGLEYLHSQGIVHKDIKPGNLLLTTGGTLKISDLGVAEALHPFAADDTCRTSQGSPAFQPPEIANGLDTFSGFKVDIWSAGVTLYNITTGLYPFEGDNIYKLFENIGKGSYAIPGDCGPPLSDLLKGMLEYEPAKRFSIRQIRQHSWFRKKHPPAEAPVPIPPSPDTKDRWRSMTVVPYLEDLHGADEDEDLFDIEDDIIYTQDFTVPGQVPEEEASHNGQRRGLPKAVCMNGTEAAQLSTKSRAEGRAPNPARKACSASSKIRRLSACKQQ [L55G] | 1.53 ± 0.23

— the supplement of paper PMC12338614
